In IntAct's records for PubMed 24075010:

B1: Myocyte-specific enhancer factor 2 (Drosophila melanogaster (Fruit fly)), P40791 (parent)
chain: MGRKKIQISRITDERNRQVTFNKRKFGVMKKAYELSVLCDCEIALIIFSSSNKLYQYASTDMDRVLLKYTEYNEPHESLTNKNIIEKENKNGVMSPDSPEAETDYTLTPRTEAKYNKIDEEFQNMMQRNQMAIGGAGAPRQLPNSSYTLPVSVPVPGSYGDNLLQASPQMSHTNISPRPSSSETDSGGMSLIIYPSGSMLEMSNGYPHSHSPLVGSPSPGPSPGIAHHLSIKQQSPGSQNGRASNLRVVIPPTIAPIPPNMSAPDDVGYADQRQSQTSLNTPVVTLQTPIPALTSYSFGAQDFSSSGVMNSADIMSLNTWHQGLVPHSSLSHLAVSNSTPPPATSPVSIKVKAEPQSPPRDLSASGHQQNSNGSTGSGGSSSSTSSNASGGAGGGGAVSAANVITHLNNVSVLAGGPSGQGGGGGGGGSNGNVEQATNLSVLSHAQQHHLGMPNSRPSSTGHITPTPGHDKYEGYPYRALMGHNPRWNLNFAGAPSSDQDVRLAAVAVQQQQQQPHQQQQLGDYDAPNHKRPRISGGWGT
partner: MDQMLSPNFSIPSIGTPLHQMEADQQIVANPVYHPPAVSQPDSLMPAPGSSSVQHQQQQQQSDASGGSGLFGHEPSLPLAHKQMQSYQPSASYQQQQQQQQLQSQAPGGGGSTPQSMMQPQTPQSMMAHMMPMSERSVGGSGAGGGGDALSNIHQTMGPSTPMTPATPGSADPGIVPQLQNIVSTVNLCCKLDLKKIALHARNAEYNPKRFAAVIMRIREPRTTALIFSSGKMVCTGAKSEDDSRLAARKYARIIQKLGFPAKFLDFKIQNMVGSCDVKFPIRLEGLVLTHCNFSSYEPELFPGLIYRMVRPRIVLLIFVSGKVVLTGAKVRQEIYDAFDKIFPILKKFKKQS

Variants of: B1
Conditions: with tbp_drome Tbp

Variant	effect of a mutation on the interaction
T20A	increasing interaction strength
T20E	decreasing interaction strength
